According to the PETadex activity labels (doi:10.1038/s41467-023-40233-w):

Substrate: pcPET (post-consumer)
Assay: Proxy for plastic degradation [Released monomer concentration (HPLC/LC-MS) (TPA+MHET+BHET)]
Conditions: pH 9

Row | Protein | Proxy for plastic degradation (40 °C, 24 h) [µM] | Proxy for plastic degradation (60 °C, 6 h) [µM]
1 | unnamed (protein) MLSFLRSTGRPERRRASLPALLLFTAALVASGLTAAPAAQAADNPYQRGPDPTNASIEAATGPFAVGTQPIVGASGFGGGQIYYPTDTSQTYGAVVIVPGFISVWAQLNWLGPRLASQGFVVIGIETSTITDLPDPRGDQALAALDWATTRSPVASRIDRTRLAAAGWSMGGGGLRRAALQRPSLKAIVGMAPWNGERNWSAVTVPTLFFGGSSDAVASPNDHAKPFYNSITRAEKDYIELRNADHFFPTSANTTMAKYFISWLKRWVDNDTRYTQFLCPGPSTGLFAPVSASMNTCPF | 990 | 
2 | unnamed (protein) MLSFLRSTGRPERRRASLPALLLFTAALVASGLTAAPAAQAADNPYQRGPDPTNASIEAATGPFAVGTQPIVGASGFGGGQIYYPTDTSQTYGAVVIVPGFISVWAQLNWLGPRLASQGFVVIGIETSVITDLPDPRGDQALAALDWATTRSPVASRIDRTRLAAAGWSMGGGGLRRAALQRPSLKAIVGMAPWNGERNWSAVCVPTLFFGGSSDAVASPNDHAKPFYNSITCAEKDYIELRNADHFFPTSANTTMAKYFISWLKRWVDNDTRYTQFLCPGPSTGLFAPVSASMNTCPF | 590 | 
3 | unnamed (protein) MLSFLRSTGRPERRRASLPALLLFTAALVASGLTAAPAAQAADNPYQRGPDPTNASIEAATGPFAVGTQPIVGASGFGGGQIYYPTDTSQTYGAVVIVPGFTSVWAQLNWLGPRLASQGFVVIGIETSVITDLPDPRGDQALAALDWATTRSPVASRIDRTRLAAAGWSMGGGGLRRAALQRPSLKAIVGMAPWNGERNWSAVTVPTLFFGGSSDAVASPNDHAKPFYNSITRAEKDYIELRNADHFFPTSANTTMAKYFISWLKRWVDNDTRYTQFLCPGPSTGLFAPVSASMNTCPF | 560 | 
4 | unnamed (protein) MLSFLRSTGRPERRRASLPALLLFTAALVASGLTAAPAAQAADNPYQRGPDPTNASIEAATGPFAVGTQPIVGASGFGGGQIYYPTDTSQTYGAVVIVPGFISVWAQLNWLGPRLASQGFVVIGIETSVITDLPDPRGDQALAALDWATTRSPVASRIDRTRLAAAGWSMGGGGLRRAALQRPSLKAIVGMAPWNTERNWSAVTVPTLFFGGSSDAVASPNDHAKPFYNSITRAEKDYIELRNADHFFPTSANTTMAKYFISWLKRWVDNDTRYTQFLCPGPSTGLFAPVSASMNTCPF | 840 | 
5 | unnamed (protein) MLSFLRSTGRPERRRASLPALLLFTAALVASGLTAAPAAQAADNPYQRGPDPTNASIEAATGPFAVGTQPIVGASGFGGGQIYYPTDTSQTYGAVVIVPGFISVWAQLNWLGPRLASQGFVVIGIETSVITDLPDPRGDQALAALDWATTRSPVASRIDRTRLAAAGWSMGGGGLRRAACQRPSLKAIVGMAPWNGERNWSCVTVPTLFFGGSSDAVASPNDHAKPFYNSITRAEKDYIELCNADHFFPTSANTTMAKYFISWLKRWVDNDTRYTQFLCPGPSTGLFAPVCASMNTCPF | 948 | 270
6 | unnamed (protein) MLSFLRSTGRPERRRASLPALLLFTAALVASGLTAAPAAQAADNPYQRGPDPTNASIEAATGPFAVGTQPIVGASGFGGGQIYYPTDTSQTYGAVVIVPGFISVWAQLNWLGPRLASQGFVVIGIETSVITDLPDPRGDQALAALDWATTRSPVASRIDATRLAAAGWSMGGGGLRRAALQRPSLKAIVGMAPWNGERNWSAVTVPTLFFGGSSDAVASPNDHAKPFYNSITRAEKDYIELRNADHFFPTSANTTMAKYFISWLKRWVDNDTRYTQFLCPGPSTGLFAPVSASMNTCPF | 680 | 
7 | unnamed (protein) MLSFLRSTGRPERRRASLPALLLFTAALVASGLTAAPAAQAADNPYQRGPDPTNASIEAATGPFAVGTQPIVGASGFGGGQIYYPTDTSQTYGAVVIVPGFISVWAQLNWLGPRLASQGFVVIGIETSVITDLPDPRGDQALAALDWATTRSPVASRIDRTRLAAAGWSMGGGGLRRAALQRPSLKAIVGMAPWNGERNWSAVTVPTLFFGGSSDAVASPNDHAKPFYNSITRAEKDYIELRNADHFFPTSANTTMAKYFISWLKRWVDNDTRYTQFLCPGPSTGLFAPVSASRNTCPF | 310 | 
8 | unnamed (protein) MLSFLRSTGRPERRRASLPALLLFTAALVASGLTAAPAAQAADNPYQRGPDPTNASIEAATGPFAVGTQPIVGASGFGGGQIYYPTDTSQTYGAVVIVPGFISVWAQLAWLGPRLASQGFVVIGIETSTITDLPDPRGDQALAALDWATTRSPVRSRIDRTRLAAAGWSMGGGGLRRAACQRPSLKAIVGMAPWNTEKNWSCVTVPTLFFGGSSDAVASPNDHAKPFYNSITRAEKDYIELCNADHFFPTSANTTMAKYFISWLKRWVDNDTRYTQFLCPGPSTGLFAPVCASMNTCPF | 1370 | 1860
9 | unnamed (protein) MLSFLRSTGRPERRRASLPALLLFTAALVASGLTAAPAAQAADNPYQRGPDPTNASIEAATGPFAVGTQPIVGASGFGGGQIYYPTDTSQTYGAVVIVPGFISVWAQLAWLGPRLASQGFVVIGIETSVITDLPDPRGDQALAALDWATTRSPVASRIDRTRLAAAGWSMGGGGLRRAACQRPSLKAIVGMAPWNGERNWSCVTVPTLFFGGSSDAVASPNDHAKPFYNSITRAEKDYIELCNADHFFPTSANTTMAKYFISWLKRWVDNDTRYTQFLCPGPSTGLFAPVCASMNTCPF | 1080 | 420
10 | unnamed (protein) MLSFLRSTGRPERRRASLPALLLFTAALVASGLTAAPAAQAADNPYQRGPDPTNASIEAATGPFAVGTQPIVGASGFGGGQIYYPTDTSQTYGAVVIVPGFISVWAQLNWLGPRLASQGFVVIGIETSVITDLPDPRGDQALAALDWATTRSPVASRIDRTRLAAAGWSMGGGGLRRAALQRPSLKAIVGMAPWNGERNWSATTVPTLFFGGSSDAVASPNDHAKPFYNSITRAEKDYIELRNADHFFPTSANTTMAKYFISWLKRWVDNDTRYTQFLCPGPSTGLFAPVSASMNTCPF | 170 | 
11 | unnamed (protein) MLSFLRSTGRPERRRASLPALLLFTAALVASGLTAAPAAQAADNPYQRGPDPTNASIEAATGPFAVGTQPIVGASGFGGGQIYYPTDTSQTYGAVVIVPGFISVWAQLAWLGPRLASQGFVVIGIETSTITDLPDPRGDQALAALDWATTRSPVRSRIDRTRLAAAGWSMGGGGLRRAACQRPSLKAIVGMAPWNGEKNWSCVTVPTLFFGGSSDAVASPNDHAKPFYNSITRAEKDYIELCNADHFFPTSANTTMAKYFISWLKRWVDNDTRYTQFLCPGPSTGLFAPVCASMNTCPF | 1250 | 1560
12 | unnamed (protein) MLSFLRSTGRPERRRASLPALLLFTAALVASGLTAAPAAQAADNPYQRGPDPTNASIEAATGPFAVGTQPIVGASGFGGGQIYYPTDTSQTYGAVVIVPGFISVWAQLNWLGPRLASQGFVVIGIETSVITDQPDPRGDQALAALDWATTRSPVASRIDRTRLAAAGWSMGGGGLRRAALQRPSLKAIVGMAPWNGERNWSAVTVPTLFFGGSSDAVASPNDHAKPFYNSITRAEKDYIELRNADHFFPTSANTTMAKYFISWLKRWVDNDTRYTQFLCPGPSTGLFAPVSASMNTCPF | 470 | 
13 | unnamed (protein) MLSFLRSTGRPERRRASLPALLLFTAALVASGLTAAPAAQAADNPYQRGPDPTNASIEAATGPFAVGTQPIVGASGFGGGQIYYPTDTSQTYGAVVIVPGFISVWAQLNWLGPRLASQGFVVIGIETSVITDLPDPRGDQALAALDWATTASPVASRIDRTRLAAAGWSMGGGGLRRAALQRPSLKAIVGMAPWNGERNWSAVTVPTLFFGGSSDAVASPNDHAKPFYNSITRAEKDYIELRNADHFFPTSANTTMAKYFISWLKRWVDNDTRYTQFLCPGPSTGLFAPVSASMNTCPF | 600 | 
14 | unnamed (protein) MLSFLRSTGRPERRRASLPALLLFTAALVASGLTAAPAAQAADNPYQRGPDPTNASIEAATGPFAVGTQPIVGASGFGGGQIYYPTDTSQTYGAVVIVPGFISVWAQLNWLGPRLASQGFVVIGIETSVITDLPDPRGDQALAALDWATTRSPVASRIDRTRLAAAGWSMGGGGLRRAALQRPSLKAIVGMAPWNGERNWSAVTVPTLFFGGSSDAVASPNDHAKPFYNSITRAEKDYIELRNADHFFPTSANTTMSKYFISWLKRWVDNDTRYTQFLCPGPSTGLFAPVSASMNTCPF | 530 | 
15 | unnamed (protein) MLSFLRSTGRPERRRASLPALLLFTAALVASGLTAAPAAQAADNPYQRGPDPTNASIEAATGPFAVGTQPIVGASGFGGGQIYYPTDTSQTYGAVVIVPGFISVWAQLNWLGPRLASQGFVVIGIETSVITDLPDPRGDQALAALDWATTRSPVASRIDRTRLAAAGWSMGGGGLRRAACQRPSLKAIVGMAPWNGERNWSCVTVPTLFFGGSSDAVASPNDHAKPFYNSITRAEKDYIELRNADHFFPTSANTTMAKYFISWLKRWVDNDTRYTQFLCPGPSTGLFAPVSASMNTCPF | 850 | 
16 | unnamed (protein) MLSFLRSTGRPERRRASLPALLLFTAALVASGLTAAPAAQAADNPYQRGPDPTNASIEAATGPFAVGTQPIVGASGFGGGQIYYPTDTSQTYGAVVIVPGFISVWAQLNWLGPRLASQGFVVIGIETSVITDLPDPRGDQALAALDWATTRSPVASRIDRTRLAAAGHSMGGGGLRRAALQRPSLKAIVGMAPWNGERNWSAVTVPTLFFGGSSDAVASPNDHAKPFYNSITRAEKDYIELRNADHFFPTSANTTMAKYFISWLKRWVDNDTRYTQFLCPGPSTGLFAPVSASMNTCPF | 220 | 
